Data published in PMC8048964 (Angewandte Chemie (International Ed. in English), 2021).

Assays:
U2OS cells = test: Live-cell delivery to U2OS cells, confocal laser scanning microscopy; format: cell-based
HeLa cells = test: Live-cell delivery to HeLa cells, CLSM and FiJi image analysis; format: cell-based; conditions: CLSM

## TAMRA-SUMO2-cR10D [compound 15]
U2OS cells; 4 μM in PBS, 37 °C, 45 min, CLSM
  signals in lysosomes or endosomes (punctuates) compared to analogue 14: significantly fewer signals

## TAMRA-Ub(S20C(cR10D))-PA [compound 11]
U2OS cells; 2 μM in PBS, two independent sets of experiments (Figure S23)
  live-cell delivery (TAMRA signal, CLSM): significantly good

## TAMRA‐Cys(cR10)‐Ub [compound 7]
HeLa cells
  endosomal or lysosomal entrapment / cytosolic availability of protein: cytosolic availability of protein was not improved
